Measurements as given in the Human Domainome abundance scans (Beltran et al. 2025).
± gives the uncertainty stated by the source.

B1: Ankyrin-1, residues 1405 to 1484; numbered along this chain, P16157 (parent)
chain: MKMAVISEHLGLSWAELARELQFSVEDINRIRVENPNSLLEQSVALLNLWVIREGQNANMENLYTALQSIDRGEIVNMLE

Variants of: B1
Assay: abundance fitness (aPCA) (normalised: wild type 0, dead -1); higher = more abundant; growth selection in yeast, the domain comes from the species named
Conditions: Homo sapiens

| Variant | abundance fitness |
| --- | --- |
| E54L | -0.567 ± 0.076 |
| E54P | -0.977 ± 0.25 |
| E54I | -0.931 ± 0.26 |
| E54A | -0.496 ± 0.077 |
| E54K | -0.29 ± 0.12 |
| E54H | -0.294 ± 0.17 |
| E54M | -0.294 ± 0.058 |
| P36Q | 0.123 ± 0.11 |
| P36D | -0.165 ± 0.14 |
| P36L | -0.774 ± 0.12 |
| P36M | -0.064 ± 0.34 |
| P36G | -0.298 ± 0.071 |
| H9N | -0.019 ± 0.18 |
| H9C | 0.011 ± 0.1 |
| Q22S | 0.018 ± 0.055 |
| Q22R | -0.093 ± 0.051 |
| Q22P | -0.522 ± 0.14 |
| Q22A | -0.066 ± 0.063 |
| N35F | -0.219 ± 0.2 |
| N35Y | -0.42 ± 0.3 |
| N35W | -0.222 ± 0.096 |
| N35S | -0.017 ± 0.12 |
| N35K | -0.064 ± 0.16 |
| A58P | 0.195 ± 0.083 |

| Variant | abundance fitness |
| --- | --- |
| A58G | 0.038 ± 0.048 |
| A58H | -0.241 ± 0.24 |
| A58C | 0.031 ± 0.14 |
| L12V | 0.029 ± 0.087 |
| L12E | -0.499 ± 0.29 |
| L12F | -0.069 ± 0.2 |
| N57H | -0.255 ± 0.29 |
| N57I | -0.636 ± 0.47 |
| M3K | -0.155 ± 0.13 |
| M3F | 0.105 ± 0.097 |
| M3Y | -0.708 ± 0.18 |
| M3D | -0.332 ± 0.28 |
| L49N | -0.256 ± 0.12 |
| L49Q | 0.014 ± 0.075 |
| L49P | -0.81 ± 0.19 |
| L49V | -0.314 ± 0.065 |
| L49M | 0.061 ± 0.047 |
| L49I | -0.058 ± 0.1 |
| S38M | -0.353 ± 0.12 |
| S38A | -0.258 ± 0.081 |
| D27V | -0.089 ± 0.058 |
| D27G | -0.573 ± 0.081 |
| D27W | -0.89 ± 0.15 |
| D27Y | -0.597 ± 0.2 |

| Variant | abundance fitness |
| --- | --- |
| L40R | 0.089 ± 0.059 |
| L40H | -0.136 ± 0.11 |
| L40P | -0.428 ± 0.075 |
| L40C | -0.373 ± 0.097 |
| L40A | -0.11 ± 0.052 |
| L10I | -0.172 ± 0.15 |
| L10N | -0.69 ± 0.28 |
| L67F | -0.788 ± 0.23 |
| L67G | -0.852 ± 0.097 |
| L67E | -0.792 ± 0.21 |
| L67T | -0.965 ± 0.29 |
| L67R | -0.803 ± 0.097 |
| F23M | -0.693 ± 0.14 |
| F23E | -0.911 ± 0.35 |
| N59V | -0.078 ± 0.046 |
| N59T | -0.338 ± 0.16 |
| N59H | -0.376 ± 0.28 |
| N59I | -0.314 ± 0.2 |
| N59L | -0.2 ± 0.1 |
| N59Q | -0.031 ± 0.11 |
| N59C | -0.222 ± 0.12 |
| R30I | -0.356 ± 0.2 |
| R30T | -0.226 ± 0.086 |
| R30V | -0.192 ± 0.055 |

| Variant | abundance fitness |
| --- | --- |
| R30E | -0.292 ± 0.13 |
| R30H | -0.081 ± 0.22 |
| R30Q | -0.049 ± 0.072 |
| R30P | -1.1 ± 0.21 |
| R30S | -0.139 ± 0.062 |
| R30N | -0.134 ± 0.071 |
| A15W | -0.288 ± 0.065 |
| A15I | 0.132 ± 0.072 |
| A15G | -0.108 ± 0.037 |
| A15S | 0.037 ± 0.06 |
| A15L | 0.076 ± 0.049 |
| N37H | -0.366 ± 0.29 |
| N37D | -0.023 ± 0.13 |
| N37A | -0.025 ± 0.093 |
| M78E | -0.236 ± 0.14 |
| M78S | -0.121 ± 0.066 |
| M78Q | -0.061 ± 0.098 |
| M78W | -0.19 ± 0.075 |
| M78H | -0.158 ± 0.15 |
| V25C | -0.161 ± 0.083 |
| V25H | 0.159 ± 0.085 |
| V25M | -0.056 ± 0.12 |
| V25A | 0.028 ± 0.05 |
| V25K | -0.005 ± 0.11 |

| Variant | abundance fitness |
| --- | --- |
| K2W | 0.098 ± 0.078 |
| K2I | -0.003 ± 0.096 |
| K2N | -0.081 ± 0.095 |
| K2P | -0.587 ± 0.15 |
| K2G | -0.147 ± 0.048 |
| Q56S | -0.097 ± 0.07 |
| Q56L | -0.19 ± 0.061 |
| Q56I | 0.097 ± 0.17 |
| Q56D | -0.139 ± 0.19 |
| Q56V | 0.07 ± 0.065 |
| G55W | -1.01 ± 0.42 |
| G55S | -0.277 ± 0.12 |
| M60G | -0.813 ± 0.2 |
| M60S | -0.28 ± 0.14 |
| M60R | -0.704 ± 0.15 |
| M60T | -0.286 ± 0.19 |
| M60H | 0.243 ± 0.24 |
| M60N | -0.723 ± 0.47 |
| M60K | -0.534 ± 0.35 |
| M60A | -0.343 ± 0.16 |
| S24E | -0.067 ± 0.069 |
| S24M | -0.487 ± 0.12 |
| S24H | -0.429 ± 0.18 |
| S24A | -0.213 ± 0.056 |

| Variant | abundance fitness |
| --- | --- |
| S24P | -0.209 ± 0.056 |
| S24W | -0.925 ± 0.25 |
| S24C | -0.39 ± 0.17 |
| V76E | -0.358 ± 0.094 |
| V76I | 0.079 ± 0.13 |
| L63N | -0.806 ± 0.36 |
| L63W | -0.693 ± 0.22 |
| L63M | -0.027 ± 0.087 |
| L63T | -0.493 ± 0.15 |
| L63F | -0.632 ± 0.3 |
| T65F | -0.095 ± 0.083 |
| T65S | 0.001 ± 0.046 |
| T65N | -0.004 ± 0.14 |
| T65A | -0.029 ± 0.052 |
| T65G | -0.045 ± 0.043 |
| T65D | 0.009 ± 0.065 |
| T65K | -0.055 ± 0.12 |
| T65Q | 0.016 ± 0.043 |
| T65C | -0.002 ± 0.087 |
| T65W | -0.291 ± 0.083 |
| G11T | -0.371 ± 0.1 |
| G11W | -0.893 ± 0.18 |
| G11F | -0.581 ± 0.16 |
| G11P | -0.997 ± 0.49 |

| Variant | abundance fitness |
| --- | --- |
| G11S | -0.616 ± 0.13 |
| G11N | -0.161 ± 0.21 |
| G11H | 0.028 ± 0.4 |
| G11D | -0.171 ± 0.23 |
| L21M | 0.048 ± 0.12 |
| L21R | -0.923 ± 0.26 |
| L21W | -0.666 ± 0.13 |
| A18C | -1.05 ± 0.29 |
| A18G | -0.075 ± 0.048 |
| A18Q | -0.936 ± 0.38 |
| A18D | -0.96 ± 0.23 |
| E80P | 0.049 ± 0.21 |
| E80A | -0.083 ± 0.081 |
| E80V | -0.154 ± 0.13 |
| E80F | -0.023 ± 0.1 |
| E80D | 0.164 ± 0.071 |
| N62I | 0.089 ± 0.089 |
| N62Y | 0.002 ± 0.11 |
| N62S | -0.081 ± 0.076 |
| N62V | 0.071 ± 0.065 |
| N62F | 0.034 ± 0.13 |
| A66K | -0.263 ± 0.12 |
| A66G | -0.197 ± 0.048 |
